According to patent US20160047810A1 (INSTITUT PASTEUR, published 2016):

T1: FtsZ (purified, from pET11a-ftsZ), P0A9A6
T1 chain: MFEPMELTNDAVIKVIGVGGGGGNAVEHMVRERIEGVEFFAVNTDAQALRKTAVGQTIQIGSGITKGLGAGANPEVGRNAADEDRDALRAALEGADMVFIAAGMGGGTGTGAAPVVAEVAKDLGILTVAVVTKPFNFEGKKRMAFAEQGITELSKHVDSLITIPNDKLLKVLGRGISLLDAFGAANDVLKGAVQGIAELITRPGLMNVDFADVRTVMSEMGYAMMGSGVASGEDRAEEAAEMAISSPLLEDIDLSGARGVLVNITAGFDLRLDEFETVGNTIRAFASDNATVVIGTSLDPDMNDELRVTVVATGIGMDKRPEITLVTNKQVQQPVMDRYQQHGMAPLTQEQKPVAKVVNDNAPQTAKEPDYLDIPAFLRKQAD

B1: E. coli K12 Lop1Δ1-59-H6 (protein)
chain: WGKREDTKHTPVRGLYMWGGVGRGKTWLMDLFYQSLPGERKQRLHFHRFMLRVHEELTALQGQTDPLEIIADRFKAETDVLCFDEFFVSDITDAMLLGGLMKALFARGITLVATSNIPPDELYRNGLQRARFLPAIDAIKQHCDVMNVDAGVDYRLRTLTQAHLWLSPLHDETRAQMDKLWLALAGGKRENSPTLEINHRPLATMGVENQTLAVSFTTLCVDARSQHDYIALSRLFHTVMLFDVPVMTRLMESEARRFIALVDEFYERHVKLVVSAEVPLYEIYQGDRLKFEFQRCLSRLQEMQSEEYLKREHLAG
B2: E. coli K12 Lop1-H6 (protein)
chain: MQSVTPTSQYLKALNEGSHQPDDVQKEAVSRLEIIYQELINSTPPAPRTSGLMARVGKLWGKREDTKHTPVRGLYMWGGVGRGKTWLMDLFYQSLPGERKQRLHFHRFMLRVHEELTALQGQTDPLEIIADRFKAETDVLCFDEFFVSDITDAMLLGGLMKALFARGITLVATSNIPPDELYRNGLQRARFLPAIDAIKQHCDVMNVDAGVDYRLRTLTQAHLWLSPLHDETRAQMDKLWLALAGGKRENSPTLEINHRPLATMGVENQTLAVSFTTLCVDARSQHDYIALSRLFHTVMLFDVPVMTRLMESEARRFIALVDEFYERHVKLVVSAEVPLYEIYQGDRLKFEFQRCLSRLQEMQSEEYLKREHLAG
B3: E. coli K12 Lop1K84A-H6 (protein)
chain: MQSVTPTSQYLKALNEGSHQPDDVQKEAVSRLEIIYQELINSTPPAPRTSGLMARVGKLWGKREDTKHTPVRGLYMWGGVGRGATWLMDLFYQSLPGERKQRLHFHRFMLRVHEELTALQGQTDPLEIIADRFKAETDVLCFDEFFVSDITDAMLLGGLMKALFARGITLVATSNIPPDELYRNGLQRARFLPAIDAIKQHCDVMNVDAGVDYRLRTLTQAHLWLSPLHDETRAQMDKLWLALAGGKRENSPTLEINHRPLATMGVENQTLAVSFTTLCVDARSQHDYIALSRLFHTVMLFDVPVMTRLMESEARRFIALVDEFYERHVKLVVSAEVPLYEIYQGDRLKFEFQRCLSRLQEMQSEEYLKREHLAG
B4: K12 H6-Lop1Δ1-59Δ303-375 (protein)
chain: WGKREDTKHTPVRGLYMWGGVGRGKTWLMDLFYQSLPGERKQRLHFHRFMLRVHEELTALQGQTDPLEIIADRFKAETDVLCFDEFFVSDITDAMLLGGLMKALFARGITLVATSNIPPDELYRNGLQRARFLPAIDAIKQHCDVMNVDAGVDYRLRTLTQAHLWLSPLHDETRAQMDKLWLALAGGKRENSPTLEINHRPLATMGVENQTLAVSFTTLCVDARSQHDYIALSRLFHTVMLFD
B5: FtsZ (purified, from pET11a-ftsZ) (other)
chain: MFEPMELTNDAVIKVIGVGGGGGNAVEHMVRERIEGVEFFAVNTDAQALRKTAVGQTIQIGSGITKGLGAGANPEVGRNAADEDRDALRAALEGADMVFIAAGMGGGTGTGAAPVVAEVAKDLGILTVAVVTKPFNFEGKKRMAFAEQGITELSKHVDSLITIPNDKLLKVLGRGISLLDAFGAANDVLKGAVQGIAELITRPGLMNVDFADVRTVMSEMGYAMMGSGVASGEDRAEEAAEMAISSPLLEDIDLSGARGVLVNITAGFDLRLDEFETVGNTIRAFASDNATVVIGTSLDPDMNDELRVTVVATGIGMDKRPEITLVTNKQVQQPVMDRYQQHGMAPLTQEQKPVAKVVNDNAPQTAKEPDYLDIPAFLRKQAD
notes: Used as GTP-induced polymers in the proteolysis assays; also called FtsZ polymers; Z-ring

Legend:
[1] = target: T1, FtsZ (purified, from pET11a-ftsZ), …
[2] = target: the molecule itself; test: self-association, polymerization assay, ultracentrifugation and western blot

Protein | FtsZ polymer proteolysis assay (ultracentrifugation, western blot) [1] | further results
B1 | incubation of FtsZ polymers with Lop1Δ1-59 in the absence of ATP caused its significant degradation (t=1 min, no FtsZ signal in the soluble fraction) | 
B2 | The FtsZ polymers incubation with Lop1 lead to their slight degradation at t=3 min in an ATP-dependent manner | 
B3 | no degradation of FtsZ polymers was observed with LOp1 K84A | 
B4 |  | FtsZ polymer proteolysis assay (1 min at 30° C., western blot of the pellet) [1]: the 73aa C-terminal fragment of Lop1Δ1-59 was required for the proteolytic degradation of FtsZ polymers
B5 |  | binding result [2]: binds
